Measurements published in patent publication US20250313605A1.
*1 amine or outer side, *2 acyl side, *3 side chain or, on linkers, in order; H or OH if unused. Where no end group is shown, it is not given here. Side-chain parts run from the residue outwards. [ ]: non-standard residue; d: D form. The star is where a group is joined. C20 diacid = O=C(O)CCCCCCCCCCCCCCCCCCC(=O)*; γGlu = O=C(O)[C@H](CCC(=O)[*:2])N[*:1]; αMeL = CC(C)C[C@](C)(N)C(=O)O; αMeK = C[C@](N)(CCCCN)C(=O)O; AEEA = NCCOCCOCC(=O)O; Aib = CC(C)(N)C(=O)O

How the values were obtained:
[1] = target: T1, human GIP receptor (human), P48546; experiment: cell-based or functional assay
T1 chain: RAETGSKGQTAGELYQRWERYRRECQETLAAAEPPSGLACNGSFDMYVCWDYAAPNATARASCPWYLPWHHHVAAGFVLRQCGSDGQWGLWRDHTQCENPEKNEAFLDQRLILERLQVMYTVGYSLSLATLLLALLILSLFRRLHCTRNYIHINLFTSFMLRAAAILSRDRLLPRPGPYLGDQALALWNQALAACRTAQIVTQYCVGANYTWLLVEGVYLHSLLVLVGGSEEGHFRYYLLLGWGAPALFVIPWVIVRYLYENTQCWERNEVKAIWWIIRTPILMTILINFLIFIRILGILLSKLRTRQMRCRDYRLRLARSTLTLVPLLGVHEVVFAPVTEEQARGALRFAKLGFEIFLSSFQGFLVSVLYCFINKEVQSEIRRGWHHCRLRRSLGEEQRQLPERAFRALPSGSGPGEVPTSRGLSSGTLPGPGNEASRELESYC

[2] = target: T2, human GLP-1 receptor (human), P43220; experiment: cell-based or functional assay
T2 chain: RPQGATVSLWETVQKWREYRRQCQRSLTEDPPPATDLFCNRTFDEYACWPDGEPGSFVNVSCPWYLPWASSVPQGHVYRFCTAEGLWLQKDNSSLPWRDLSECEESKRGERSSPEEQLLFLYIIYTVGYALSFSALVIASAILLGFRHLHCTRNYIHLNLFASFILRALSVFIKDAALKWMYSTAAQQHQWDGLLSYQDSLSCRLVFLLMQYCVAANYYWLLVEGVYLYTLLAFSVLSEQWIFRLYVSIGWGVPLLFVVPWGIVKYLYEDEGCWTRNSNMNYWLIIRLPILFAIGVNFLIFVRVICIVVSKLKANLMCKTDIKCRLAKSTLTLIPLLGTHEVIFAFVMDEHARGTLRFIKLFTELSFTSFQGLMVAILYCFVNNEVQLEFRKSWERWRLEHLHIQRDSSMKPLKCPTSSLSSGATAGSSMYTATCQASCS

[3] = target: human glucagon receptor (human), P47871; experiment: cell-based or functional assay
[4] = target: T1, human GIP receptor (human), P48546; experiment: radioligand competition SPA, HEK293 membranes
[5] = target: T2, human GLP-1 receptor (human), P43220; experiment: radioligand competition SPA, HEK293 membranes
[6] = target: human glucagon receptor (human), P47871; experiment: radioligand competition SPA, HEK293 membranes

Chain of human glucagon receptor (human), P47871 (P47871 26-477): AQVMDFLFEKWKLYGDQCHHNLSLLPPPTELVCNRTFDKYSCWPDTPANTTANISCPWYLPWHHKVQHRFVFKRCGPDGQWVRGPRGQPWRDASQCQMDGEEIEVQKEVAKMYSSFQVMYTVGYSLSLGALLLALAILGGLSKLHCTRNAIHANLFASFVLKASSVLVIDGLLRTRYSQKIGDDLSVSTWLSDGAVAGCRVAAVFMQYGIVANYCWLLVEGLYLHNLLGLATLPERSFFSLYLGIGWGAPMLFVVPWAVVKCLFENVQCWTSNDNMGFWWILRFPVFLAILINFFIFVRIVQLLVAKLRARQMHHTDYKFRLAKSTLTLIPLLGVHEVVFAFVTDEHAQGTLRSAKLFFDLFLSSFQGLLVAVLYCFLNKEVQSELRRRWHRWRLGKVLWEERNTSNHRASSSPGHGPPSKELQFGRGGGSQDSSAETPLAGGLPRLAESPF

Binder Y[Aib]QGTFTSDYSI[αMeL]LDKK([AEEA-AEEA-γGlu-C20 diacid])AQ[αMeK]AFIEYLLEGGPSSGAPPPS-NH2 [Example 3] has a cAMP EC50 (0.1% casein) [1] of 0.0376 nM, a cAMP EC50 (FBS and BSA present) [1] of 1.91 nM and a cAMP EC50 (0.1% casein) [2] of 0.107 nM. The cAMP EC50 (0.1% casein) [3] was 0.152 nM, the cAMP EC50 (FBS and BSA present) [3] was 8.03 nM and the Ki [4] was 0.0446 nM. The Ki [5] was 6.06 nM and the Ki [6] was 12 nM.

B1: Example 15 (peptide)
peptide: Y[Aib]QGTFTSDYSILLDKK([AEEA-AEEA-γGlu-C20 diacid])AQ[Aib]AFIEYLLA[Aib]GPSSGAPPPS-NH2
modifications: N-terminus assumed
SMILES: CC[C@H](C)[C@H](NC(=O)[C@H](Cc1ccccc1)NC(=O)[C@H](C)NC(=O)C(C)(C)NC(=O)[C@H](CCC(N)=O)NC(=O)[C@H](C)NC(=O)[C@H](CCCCNC(=O)COCCOCCNC(=O)COCCOCCNC(=O)CC[C@H](NC(=O)CCCCCCCCCCCCCCCCCCC(=O)O)C(=O)O)NC(=O)[C@H](CCCCN)NC(=O)[C@H](CC(=O)O)NC(=O)[C@H](CC(C)C)NC(=O)[C@H](CC(C)C)NC(=O)[C@@H](NC(=O)[C@H](CO)NC(=O)[C@H](Cc1ccc(O)cc1)NC(=O)[C@H](CC(=O)O)NC(=O)[C@H](CO)NC(=O)[C@@H](NC(=O)[C@H](Cc1ccccc1)NC(=O)[C@@H](NC(=O)CNC(=O)[C@H](CCC(N)=O)NC(=O)C(C)(C)NC(=O)[C@@H](N)Cc1ccc(O)cc1)[C@@H](C)O)[C@@H](C)O)[C@@H](C)CC)C(=O)N[C@@H](CCC(=O)O)C(=O)N[C@@H](Cc1ccc(O)cc1)C(=O)N[C@@H](CC(C)C)C(=O)N[C@@H](CC(C)C)C(=O)N[C@@H](C)C(=O)NC(C)(C)C(=O)NCC(=O)N1CCC[C@H]1C(=O)N[C@@H](CO)C(=O)N[C@@H](CO)C(=O)NCC(=O)N[C@@H](C)C(=O)N1CCC[C@H]1C(=O)N1CCC[C@H]1C(=O)N1CCC[C@H]1C(=O)N[C@@H](CO)C(N)=O
With B1 the cAMP EC50 (0.1% casein) [1] was 0.0689 nM, the cAMP EC50 (FBS and BSA present) [1] was 1.47 nM and the cAMP EC50 (0.1% casein) [2] was 0.253 nM. For the same binder, the cAMP EC50 (FBS and BSA present) [2] was 10.7 nM, the cAMP EC50 (0.1% casein) [3] was 0.131 nM and the cAMP EC50 (FBS and BSA present) [3] was 5.92 nM. The Ki [4] was 0.0972 nM, the Ki [5] was 5.8 nM and the Ki [6] was 4.56 nM.

B2: Example 19 (peptide)
peptide: Y[Aib]QGTFTSDYSILLDKK([AEEA-γGlu-γGlu-C20 diacid])AQ[Aib]AFIEYLLE[Aib]GPSSGAPPPS-NH2
modifications: N-terminus assumed
SMILES: CC[C@H](C)[C@H](NC(=O)[C@H](Cc1ccccc1)NC(=O)[C@H](C)NC(=O)C(C)(C)NC(=O)[C@H](CCC(N)=O)NC(=O)[C@H](C)NC(=O)[C@H](CCCCNC(=O)COCCOCCNC(=O)CC[C@H](NC(=O)CC[C@H](NC(=O)CCCCCCCCCCCCCCCCCCC(=O)O)C(=O)O)C(=O)O)NC(=O)[C@H](CCCCN)NC(=O)[C@H](CC(=O)O)NC(=O)[C@H](CC(C)C)NC(=O)[C@H](CC(C)C)NC(=O)[C@@H](NC(=O)[C@H](CO)NC(=O)[C@H](Cc1ccc(O)cc1)NC(=O)[C@H](CC(=O)O)NC(=O)[C@H](CO)NC(=O)[C@@H](NC(=O)[C@H](Cc1ccccc1)NC(=O)[C@@H](NC(=O)CNC(=O)[C@H](CCC(N)=O)NC(=O)C(C)(C)NC(=O)[C@@H](N)Cc1ccc(O)cc1)[C@@H](C)O)[C@@H](C)O)[C@@H](C)CC)C(=O)N[C@@H](CCC(=O)O)C(=O)N[C@@H](Cc1ccc(O)cc1)C(=O)N[C@@H](CC(C)C)C(=O)N[C@@H](CC(C)C)C(=O)N[C@@H](CCC(=O)O)C(=O)NC(C)(C)C(=O)NCC(=O)N1CCC[C@H]1C(=O)N[C@@H](CO)C(=O)N[C@@H](CO)C(=O)NCC(=O)N[C@@H](C)C(=O)N1CCC[C@H]1C(=O)N1CCC[C@H]1C(=O)N1CCC[C@H]1C(=O)N[C@@H](CO)C(N)=O
For B2, the cAMP EC50 (0.1% casein) [1] was 0.0455 nM, the cAMP EC50 (FBS and BSA present) [1] was 3.13 nM and the cAMP EC50 (0.1% casein) [2] was 0.143 nM. The cAMP EC50 (FBS and BSA present) [2] was 24.4 nM, the cAMP EC50 (0.1% casein) [3] was 0.0874 nM and the cAMP EC50 (FBS and BSA present) [3] was 8.45 nM. The Ki [4] was 0.0789 nM, the Ki [5] was 12 nM and the Ki [6] was 5.2 nM.

Y[Aib]QGTFTSDYSILLDKK([AEEA-γGlu-C20 diacid])AQ[Aib]AFIEYLLEGGPSSGAPPPS-NH2 [Example 18] gave a cAMP EC50 (0.1% casein) [1] of 0.123 nM, a cAMP EC50 (FBS and BSA present) [1] of 5.89 nM and a cAMP EC50 (0.1% casein) [2] of 0.141 nM. For the same binder, the cAMP EC50 (FBS and BSA present) [2] was 16.1 nM, the cAMP EC50 (0.1% casein) [3] was 0.0861 nM and the cAMP EC50 (FBS and BSA present) [3] was 5.71 nM. It also gave a Ki [4] of 0.0835 nM, a Ki [5] of 8.06 nM and a Ki [6] of 5.71 nM.

Y[Aib]QGTFTSDYSILLDKK([AEEA-AEEA-γGlu-C20 diacid])AQ[Aib]AFIEYLLEGGPSSGAPPPS-NH2 [Example 16] showed a cAMP EC50 (0.1% casein) [1] of 0.114 nM, a cAMP EC50 (FBS and BSA present) [1] of 4.37 nM and a cAMP EC50 (0.1% casein) [2] of 0.157 nM. It also gave a cAMP EC50 (FBS and BSA present) [2] of 19 nM, a cAMP EC50 (0.1% casein) [3] of 0.174 nM and a cAMP EC50 (FBS and BSA present) [3] of 13.2 nM. The Ki [4] was 0.106 nM, the Ki [5] was 16.1 nM and the Ki [6] was 11.5 nM.

B3: Example 17 (peptide)
peptide: Y[Aib]QGTFTSDYSILLDKK([AEEA-AEEA-γGlu-C20 diacid])AQ[Aib]AFIEYLLE[Aib]GPSSGAPPPS-NH2
modifications: N-terminus assumed
SMILES: CC[C@H](C)[C@H](NC(=O)[C@H](Cc1ccccc1)NC(=O)[C@H](C)NC(=O)C(C)(C)NC(=O)[C@H](CCC(N)=O)NC(=O)[C@H](C)NC(=O)[C@H](CCCCNC(=O)COCCOCCNC(=O)COCCOCCNC(=O)CC[C@H](NC(=O)CCCCCCCCCCCCCCCCCCC(=O)O)C(=O)O)NC(=O)[C@H](CCCCN)NC(=O)[C@H](CC(=O)O)NC(=O)[C@H](CC(C)C)NC(=O)[C@H](CC(C)C)NC(=O)[C@@H](NC(=O)[C@H](CO)NC(=O)[C@H](Cc1ccc(O)cc1)NC(=O)[C@H](CC(=O)O)NC(=O)[C@H](CO)NC(=O)[C@@H](NC(=O)[C@H](Cc1ccccc1)NC(=O)[C@@H](NC(=O)CNC(=O)[C@H](CCC(N)=O)NC(=O)C(C)(C)NC(=O)[C@@H](N)Cc1ccc(O)cc1)[C@@H](C)O)[C@@H](C)O)[C@@H](C)CC)C(=O)N[C@@H](CCC(=O)O)C(=O)N[C@@H](Cc1ccc(O)cc1)C(=O)N[C@@H](CC(C)C)C(=O)N[C@@H](CC(C)C)C(=O)N[C@@H](CCC(=O)O)C(=O)NC(C)(C)C(=O)NCC(=O)N1CCC[C@H]1C(=O)N[C@@H](CO)C(=O)N[C@@H](CO)C(=O)NCC(=O)N[C@@H](C)C(=O)N1CCC[C@H]1C(=O)N1CCC[C@H]1C(=O)N1CCC[C@H]1C(=O)N[C@@H](CO)C(N)=O
B3 gave a cAMP EC50 (0.1% casein) [1] of 0.0439 nM, a cAMP EC50 (FBS and BSA present) [1] of 2.38 nM and a cAMP EC50 (0.1% casein) [2] of 0.153 nM. For the same binder, the cAMP EC50 (FBS and BSA present) [2] was 18.4 nM, the cAMP EC50 (0.1% casein) [3] was 0.135 nM and the cAMP EC50 (FBS and BSA present) [3] was 8.05 nM. The Ki [4] was 0.0895 nM, the Ki [5] was 10.2 nM and the Ki [6] was 5.81 nM.
